Test results: patent publication US20240131059A1 (FUNDACI INSTITUT D INVESTIGACI BIOM DICA DE BELLVITGE …, published 2024)

B1: mature recombinant polypeptide forming PRP6-HO7 (single monomer chain, 14.3 kDa) (other)
chain: HHHHHHLCCPEPKLNNGEITQHRKSRPANHCVYFYGDEISFSCHETSRFSAICQGDGTWSPRTPSCGDETPEGCEQVLTGKRLMQCLPNPEDVKMALEVYKLSLEIEQLELQRDSARQSTLDKEL
notes: Same chain as in m1; also called PRP6-HO7 monomer chain
B2: PRP6-NO, recombinant polypeptide formed by the CCP6 domain of C4BP(β-) fused at its C-terminus to a mutated C4BP(β-) oligomerization domain unable to … (other)
chain: HHHHHHLCCPEPKLNNGEITQHRKSRPANHCVYFYGDEISFSCHETSRFSAICQGDGTWSPRTPSCGDETPEGAEQVLTGKRLMQALPNPEDVKMALEVYKLSLEIEQLELQ
notes: Produced in Expi293 cells; Monomer of 12.7 kDa

What was measured:
[1] = target: the molecule itself; test: SDS-PAGE under reducing and non-reducing conditions, Coomassie Blue staining and Western blot (self-association into the heptamer)
Source text: (§1) For Western blot analysis, PRP-based proteins were resolved on 4-12% gradient SDS-PAGE (NuPAGE Bis-Tris 4-12% Mini Gels, Invitrogen) under reducing and non-reducing conditions and transferred to PVDF membrane. After blocking, the membrane was probed with primary antibodies: 1:2000 dil. polyclonal PK9008 rabbit anti-C4BP (a gift from Anna Blom), and 1:4000 dil. 6×His Monoclonal Antibody (Clontech, Mountain View, CA, USA), followed by the addition of 1:2000 dil. polyclonal Goat Anti-Rabbit IgG HRP (P0448, Dako, Agilent, Santa Clara. CA, USA), and 1:2000 dil. polyclonal Goat Anti-Mouse IgG HRP (P0447, Dako, Agilent, Santa Clara, CA, USA), respectively. Detection was performed with enhanced chemiluminescence (ECL) (Pierce, ThermoFischer, Carlsbad, CA, USA) using ChemiDoc Imager (Bio-Rad, Hercules, CA, USA).
(§2) In this regard, and to assess whether the C4BP CCP6 domain alone as a monomer or, conversely, in an heptavalent oligomerized form analogous to its physiological origin, would preserve the anti-inflammatory and immunomodulatory activities ascribed to PRP-HO7 (Olivar et al. (2013) J. Immunol. 190: 2857-2872). PRP6-HO7 and PRP6-NO were produced in HEK293 cells and were purified from its supernatants (FIG. 3). […]

[2] = target: the molecule itself; test: SDS-PAGE under non-reducing conditions, Coomassie Blue staining and Western blot (self-association)
Source text: as §1, §2

| Protein | binding result [1] | binding result [2] |
| --- | --- | --- |
| B1 | binds | – |
| B2 | – | no binding |
